B1: Bifunctional compound (BFC-3) (peptide)
peptide: {CH2CO}-FVPTT[Bip][NMeA][Bip][NMeA]EAPCGK-NH2
modifications: thioether N-13; not fully specified (residue 15); also: further groups not given here

Here are results for three molecules from patent US20230398224A1.

Positions of bridges follow the written chain, without caps; N, C: chain ends. Non-standard residues stand in square brackets, D forms with d. Groups on a side chain read outwards from the residue. int‑CC7 = mannose-6-phosphonate M6PR ligand; Bip = N[C@@H](Cc1ccc(-c2ccccc2)cc1)C(=O)O; NMeA = CN[C@@H](C)C(=O)O

The test deals with Purified recombinant full length human PCSK9 with C-terminal biotinylated Avitag (human) (UniProt Q8NBP7). Briefly: SPR, ProteOn XPR36; biotinylated human PCSK9 on NeutrAvidin NLC chip. For orientation: In SPR one partner is held on a chip, and binding of the other changes the refractive index at the surface.
Sequence of Purified recombinant full length human PCSK9 with C-terminal biotinylated Avitag (human) (Q8NBP7 31-692): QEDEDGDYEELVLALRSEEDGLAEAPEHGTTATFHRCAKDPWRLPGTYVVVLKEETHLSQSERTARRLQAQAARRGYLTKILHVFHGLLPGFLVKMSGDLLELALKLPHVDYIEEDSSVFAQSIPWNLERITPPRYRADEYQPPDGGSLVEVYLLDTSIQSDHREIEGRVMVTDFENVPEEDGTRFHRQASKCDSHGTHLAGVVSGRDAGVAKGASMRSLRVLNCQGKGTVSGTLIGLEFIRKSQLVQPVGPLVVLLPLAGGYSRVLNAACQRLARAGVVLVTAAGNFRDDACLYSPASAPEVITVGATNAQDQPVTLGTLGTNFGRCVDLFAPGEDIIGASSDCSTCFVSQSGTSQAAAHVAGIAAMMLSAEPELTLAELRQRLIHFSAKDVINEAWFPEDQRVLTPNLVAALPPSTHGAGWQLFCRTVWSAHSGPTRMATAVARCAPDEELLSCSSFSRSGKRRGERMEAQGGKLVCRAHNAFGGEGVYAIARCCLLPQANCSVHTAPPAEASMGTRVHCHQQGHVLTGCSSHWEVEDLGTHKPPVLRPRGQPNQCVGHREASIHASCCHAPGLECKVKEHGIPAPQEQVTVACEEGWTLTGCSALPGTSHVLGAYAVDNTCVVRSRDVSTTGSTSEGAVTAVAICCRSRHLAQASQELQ
The Kd is the concentration at which binding is half-saturated. On to B1, for which the dissociation constant (Kd) stood at 7.7 nM.

For the molecule {CH2CO}-FVPTT[Bip][NMeA][Bip][NMeA]EAPCGK([Lys(4-oxopentanoyl)-int‑CC7])-NH2 (thioether N-13; not fully specified; also: further groups not given here) [Bifunctional compound (BFC-9)], the dissociation constant Kd was 7.4 nM.

With {CH2CO}-FVPTT[Bip][NMeA][Bip][NMeA]EAPCGK([Lys(4-oxopentanoyl)-int‑CC7])-NH2 (thioether N-13; not fully specified; also: further groups not given here) [Bifunctional compound (BFC-8)], the Kd was 4.9 nM.
